Consider 3 molecules from publication doi:10.1101/2025.10.13.682046 (bioRxiv, 2025).

The chains are these.
B1: CIP2A(331-560) (domain or fragment)
chain: not shown
B2: CIP2A(1-330), prey of the GST pull-down (domain or fragment)
chain: not shown
B3: GST-CIP2A(1-330) (domain or fragment)
chain: not shown

Experiment [1] has as its target CIP2A(1-560)-V5 (human, UniProt Q8TCG1 1-560). In words: pull-down.
For experiment [2], the target named is B3. The experiment is described as follows: pull-down.

With B1, in experiment [1], the binding result was “binds”.

Consider B2, for which the binding result in experiment [2] is listed as “binds”. Regarding B3, the binding result in experiment [1] was “binds”.
